According to US20210017279A1 (NANJING LEGEND BIOTECH, published 2021):

Columns and labels:
[1] = target: T1, human LAG-3 expressed on CHO-K1 cells (human, UniProt P18627 29-525); experiment: flow cytometry on CHO cells expressing LAG-3; Experiment 1
T1 construct: also called CHO-huLAG-3 cells; LAG-3 expressed on CHO cells
T1 sequence: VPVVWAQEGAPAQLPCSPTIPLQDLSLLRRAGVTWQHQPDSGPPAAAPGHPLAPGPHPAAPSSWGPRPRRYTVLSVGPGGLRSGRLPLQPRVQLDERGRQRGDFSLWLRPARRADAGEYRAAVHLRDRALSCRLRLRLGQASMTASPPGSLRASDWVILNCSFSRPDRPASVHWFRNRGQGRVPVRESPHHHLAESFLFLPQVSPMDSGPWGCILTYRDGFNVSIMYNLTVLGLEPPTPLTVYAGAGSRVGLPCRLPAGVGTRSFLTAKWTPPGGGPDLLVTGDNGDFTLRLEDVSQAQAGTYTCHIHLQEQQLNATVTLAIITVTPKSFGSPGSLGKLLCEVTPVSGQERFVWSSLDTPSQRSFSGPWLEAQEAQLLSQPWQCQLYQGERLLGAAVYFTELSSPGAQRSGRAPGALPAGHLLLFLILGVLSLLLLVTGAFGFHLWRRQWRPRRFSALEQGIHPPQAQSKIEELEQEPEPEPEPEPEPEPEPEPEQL

[2] = target: T2, PD-1 expressed on CHO cells (UniProt Q15116 25-288, limits assumed); experiment: flow cytometry competition; blocks PD-L1 binding to CHO-PD-1 cells; Experiment 1
T2 construct: whole, on cells; also called CHO-PD-1 cells

Human PD-1 = Human PD-1 (human, UniProt Q15116 25-167, limits assumed); experiment: SPR (Biacore T200), as in Example 3; Experiment 1
Human LAG-3-His = target: T3, Human LAG-3-His (human, UniProt P18627 29-450); experiment: SPR (Biacore T200), as in Example 3; Experiment 1
T3 construct: Bought recombinant protein; also called Human LAG-3 protein (Acrobiosystem, 772-6BGF2-D5); not shown: His tag
T3 sequence: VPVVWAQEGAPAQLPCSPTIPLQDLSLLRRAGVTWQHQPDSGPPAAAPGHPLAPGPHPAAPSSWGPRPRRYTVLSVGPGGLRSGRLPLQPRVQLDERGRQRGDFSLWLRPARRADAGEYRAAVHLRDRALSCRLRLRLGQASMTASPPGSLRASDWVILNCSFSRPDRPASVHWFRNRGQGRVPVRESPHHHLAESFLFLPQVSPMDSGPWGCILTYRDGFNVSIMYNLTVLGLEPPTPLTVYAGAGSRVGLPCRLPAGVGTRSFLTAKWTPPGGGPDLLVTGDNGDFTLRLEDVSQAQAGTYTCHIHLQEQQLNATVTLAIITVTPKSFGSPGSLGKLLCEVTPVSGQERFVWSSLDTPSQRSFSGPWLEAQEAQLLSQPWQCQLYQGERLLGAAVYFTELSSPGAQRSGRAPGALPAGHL

[3] = target: T2, PD-1 expressed on CHO cells; experiment: flow cytometry on CHO cells expressing PD-1; Experiment 1
[4] = target: PD-1 in the PD-1 cell based reporter assay; experiment: cell-based or functional assay
[5] = target: LAG-3 on Thaw-and-Use LAG-3 Effector cells; experiment: cell-based or functional assay
LAG-3-Fc = target: T4, LAG-3-Fc (human, UniProt P18627 29-450, biotinylated (in the blocking assays)); experiment: flow cytometry competition; blocks LAG-3-Fc binding to MHC II on A375 cells; Experiment 1
T4 construct: Recombinant LAG-3-Fc (Acrobiosystems / R&D Systems); also called biotinylated LAG-3-Fc protein; not shown: Fc part
T4 sequence: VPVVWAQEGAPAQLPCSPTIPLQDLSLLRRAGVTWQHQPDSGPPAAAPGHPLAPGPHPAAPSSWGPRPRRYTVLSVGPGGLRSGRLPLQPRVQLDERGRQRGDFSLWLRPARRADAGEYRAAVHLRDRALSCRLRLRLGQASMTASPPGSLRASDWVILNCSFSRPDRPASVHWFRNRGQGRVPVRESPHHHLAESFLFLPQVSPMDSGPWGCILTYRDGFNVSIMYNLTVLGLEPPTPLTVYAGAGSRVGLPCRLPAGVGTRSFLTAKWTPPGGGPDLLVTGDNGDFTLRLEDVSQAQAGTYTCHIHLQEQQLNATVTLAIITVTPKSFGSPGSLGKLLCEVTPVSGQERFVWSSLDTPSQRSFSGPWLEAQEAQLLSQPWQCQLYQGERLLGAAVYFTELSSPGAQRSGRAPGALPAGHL

T2 sequence (Q15116 25-288 limits assumed): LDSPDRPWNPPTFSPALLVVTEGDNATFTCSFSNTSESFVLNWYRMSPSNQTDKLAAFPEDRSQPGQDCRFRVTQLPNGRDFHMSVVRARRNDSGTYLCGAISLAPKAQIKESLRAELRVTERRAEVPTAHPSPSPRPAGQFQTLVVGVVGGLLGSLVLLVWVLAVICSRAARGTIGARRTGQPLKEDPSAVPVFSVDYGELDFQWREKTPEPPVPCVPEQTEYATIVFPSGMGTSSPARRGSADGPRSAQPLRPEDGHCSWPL
Chain of Human PD-1 (Q15116 25-167 limits assumed): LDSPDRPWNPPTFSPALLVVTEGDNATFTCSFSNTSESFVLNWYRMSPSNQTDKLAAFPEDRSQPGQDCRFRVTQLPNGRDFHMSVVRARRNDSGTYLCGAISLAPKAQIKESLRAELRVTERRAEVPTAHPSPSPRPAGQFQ

B1: BLP-1 (bispecific antibody, human IgG4 S228P, kappa)
heavy: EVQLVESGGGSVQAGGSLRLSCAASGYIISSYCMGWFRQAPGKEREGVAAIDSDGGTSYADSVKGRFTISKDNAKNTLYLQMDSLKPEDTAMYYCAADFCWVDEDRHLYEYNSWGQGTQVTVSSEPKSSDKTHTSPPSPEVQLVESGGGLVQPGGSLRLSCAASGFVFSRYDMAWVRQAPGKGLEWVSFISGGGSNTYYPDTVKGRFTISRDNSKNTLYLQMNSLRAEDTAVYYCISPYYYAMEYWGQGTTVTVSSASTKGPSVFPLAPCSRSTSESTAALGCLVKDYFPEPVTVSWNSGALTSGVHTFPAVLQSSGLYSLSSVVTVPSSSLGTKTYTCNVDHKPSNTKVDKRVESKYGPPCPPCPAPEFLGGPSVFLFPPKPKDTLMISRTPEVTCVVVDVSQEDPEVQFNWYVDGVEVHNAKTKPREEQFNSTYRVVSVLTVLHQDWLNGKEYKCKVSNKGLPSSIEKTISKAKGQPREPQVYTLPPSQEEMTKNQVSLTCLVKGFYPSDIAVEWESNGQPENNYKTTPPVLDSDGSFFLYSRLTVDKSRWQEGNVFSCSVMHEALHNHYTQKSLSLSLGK
light: DIQMTQSPSSVSASVGDRVTITCKASQDVDTAVAWYQQKPGKAPKLLIYWASTRHTGVPSRFSGSGSGTDFTLTISSLQPEDFATYYCQQYSTFPWTFGGGTKVEIKRTVAAPSVFIFPPSDEQLKSGTASVVCLLNNFYPREAKVQWKVDNALQSGNSQESVTEQDSKDSTYSLSSTLTLSKADYEKHKVYACEVTHQGLSSPVTKSFNRGEC
notes: also called PD-1 x LAG-3 proof-of-concept BABP
B1 gave an EC50 [1] of 0.883 nM, an EC50 [2] of 6.66 nM and a Kd (Human PD-1) of 1.8 nM. For the same binder, the Kd (Human LAG-3-His) was 0.44 nM, the EC50 [3] was 7.91 nM and the “PD-1 cell based reporter assay EC50” value [4] was 7.62 nM. The “LAG-3 blockade reporter assay EC50” value [5] was 4.6 nM and the EC50 (LAG-3-Fc) was 1.8 nM.
